Experimental data taken from US20200179511A1 (Novartis, published 2020).

Legend:
[1] = target: T1, human BCMA (B-cell maturation antigen) (human, UniProt Q02223 1-184); assay: cell-based or functional assay
T1 sequence (looked up): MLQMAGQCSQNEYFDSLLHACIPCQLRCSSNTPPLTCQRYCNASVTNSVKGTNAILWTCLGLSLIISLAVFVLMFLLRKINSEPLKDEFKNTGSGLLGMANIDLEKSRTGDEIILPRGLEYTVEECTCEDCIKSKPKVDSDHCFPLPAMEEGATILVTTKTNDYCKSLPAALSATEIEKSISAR

[2] = target: T1, human BCMA (B-cell maturation antigen); assay: cell-based or functional assay; remark: listed apart in the source

B1: Anti-BCMA J6M0 hIgG DLE CGW117 (MMAE) conjugate (antibody, V domains shown)
VH: QVQLVQSGAEVKKPGSSVKVSCKASGGTFSNYWMHWVRQAPGQGLEWMGATYRGHSDTYYNQKFKGRVTITADKSTSTAYMELSSLRSEDTAVYYCARGAIYDGYDVLDNWGQGTLVTVSS
VL: DIQMTQSPSSLSASVGDRVTITCSASQDISNYLNWYQQKPGKAPKLLIYYTSNLHSGVPSRFSGSGSGTDFTLTISSLQPEDFATYYCQQYRKLPWTFGQGTKLEIKR
modifications: drug conjugate CGW117 (MMAE); attachment site not stated
Fold GSI Enhancement, ADC killing assay, MM1S cells [1]: 17.4 fold | Fold GSI Enhancement, ADC killing assay, U266B1 cells [1]: 23.1 fold | IC50, ADC killing assay, MM1S cells, No GSI [1]: 19.4 nM | IC50, ADC killing assay, MM1S cells, with GSI LY-411575 [1]: 1.12 nM | IC50, ADC killing assay, U266B1 cells, No GSI [1]: 6.04 nM | IC50, ADC killing assay, U266B1 cells, with GSI LY-411575 [1]: 0.26 nM

B2: BCMA×CD3 bispecific antibody EE11 (bispecific antibody)
chain 1: not shown
chain 2: EVQLVESGGGLVQPGGSLKLSCAASGFTFNTYAMNWVRQASGKGLEWVGRIRSKYNNYATYYADSVKDRFTISRDDSKSTLYLQMNSLKTEDTAVYYCVRHGNFGNSYVSWFAYWGQGTLVTVSSGGGGSGGGGSGGGGSGGGGSQAVVTQEPSLTVSPGGTVTLTCRSSTGAVTTSNYANWVQQKPGQAPRGLIGGTNKRAPWTPARFSGSLLGDKAALTLSGAQPEDEAEYFCALWYSNLWVFGGGTKLTVLGGGGSDKTHTCPPCPAPELLGGPSVFLFPPKPKDTLMISRTPEVTCVVVAVSHEDPEVKFNWYVDGVEVHNAKTKPREEQYNSTYRVVSVLTVLHQDWLNGKEYKCKVSNKALAAPIEKTISKAKGQPREPQVCTLPPSRDELTKNQVSLSCAVKGFYPSDIAVEWESNGQPENNYKTTPPVLDSDGSFFLVSKLTVDKSRWQQGNVFSCSVMHEALHNHYTQKSLSLSPGK
fold enhancement of RTCC EC50 upon GSI treatment [2]: ≥ 10 fold

B3: BCMA×CD3 bispecific antibody BU76 (bispecific antibody, human IgG1, kappa, N297A)
heavy: QIQLVQSGPELKKPGETVKISCKASGYTFTDYSINWVKRAPGKGLKWMGWINTETREPAYAYDFRGRFAFSLETSASTAYLQINNLKYEDTATYFCALDYSYAMDYWGQGTSVTVSSASTKGPSVFPLAPSSKSTSGGTAALGCLVKDYFPEPVTVSWNSGALTSGVHTFPAVLQSSGLYSLSSVVTVPSSSLGTQTYICNVNHKPSNTKVDKRVEPKSCDKTHTCPPCPAPELLGGPSVFLFPPKPKDTLMISRTPEVTCVVVDVSHEDPEVKFNWYVDGVEVHNAKTKPREEQYASTYRVVSVLTVLHQDWLNGKEYKCKVSNKALPAPIEKTISKAKGQPREPQVCTLPPSREEMTKNQVSLSCAVKGFYPSDIAVEWESNGQPENNYKTTPPVLDSDGSFFLVSKLTVDKSRWQQGNVFSCSVMHEALHNHYTQKSLSLSPGK
light: DIVLTQSPASLAMSLGKRATISCRASESVSVIGAHLIHWYQQKPGQPPKLLIYLASNLETGVPARFSGSGSGTDFTLTIDPVEEDDVAIYSCLQSRIFPRTFGGGTKLEIKRTVAAPSVFIFPPSDEQLKSGTASVVCLLNNFYPREAKVQWKVDNALQSGNSQESVTEQDSKDSTYSLSSTLTLSKADYEKHKVYACEVTHQGLSSPVTKSFNRGEC
chain: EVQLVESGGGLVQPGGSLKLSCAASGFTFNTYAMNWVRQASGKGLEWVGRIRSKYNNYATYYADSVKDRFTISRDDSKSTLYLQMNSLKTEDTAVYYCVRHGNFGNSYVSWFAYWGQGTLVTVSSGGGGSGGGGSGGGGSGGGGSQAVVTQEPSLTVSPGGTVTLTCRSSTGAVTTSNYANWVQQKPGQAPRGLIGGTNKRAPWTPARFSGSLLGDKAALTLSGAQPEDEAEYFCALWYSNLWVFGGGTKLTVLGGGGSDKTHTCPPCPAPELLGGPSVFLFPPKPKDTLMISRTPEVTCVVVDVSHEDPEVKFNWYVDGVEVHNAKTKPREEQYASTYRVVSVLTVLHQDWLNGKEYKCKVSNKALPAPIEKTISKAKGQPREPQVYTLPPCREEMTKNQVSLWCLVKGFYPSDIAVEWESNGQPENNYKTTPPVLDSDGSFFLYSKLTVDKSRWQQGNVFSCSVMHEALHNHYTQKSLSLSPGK
fold enhancement of RTCC EC50 upon GSI treatment [2]: > 100 fold

B4: BCMA×CD3 bispecific antibody EM90 (bispecific antibody)
light: QAVVTQEPSLTVSPGGTVTLTCGSSTGAVTTSNYANWVQEKPGQAFRGLIGGTNKRAPGTPARFSGSLLGGKAALTLSGAQPEDEAEYYCALWYSNLWVFGGGTKLTVLGQPKAAPSVTLFPPSSEELQANKATLVCLISDFYPGAVTVAWKADSSPVKAGVETTTPSKQSNNKYAASSYLSLTPEQWKSHRSYSCQVTHEGSTVEKTVAPTECS
heavy 1: not shown
heavy 2: EVQLVESGGGLVKPGGSLRLSCAASGFTFSNSGMIWVRQAPGKGLEWVGHIRSKTDGGTTDYAAPVKGRFTISRDDSKNTLYLQMNSLKTEDTAVYYCTTGGSGSFDYWGQGTLVTVSSASTKGPSVFPLAPSSKSTSGGTAALGCLVKDYFPEPVTVSWNSGALTSGVHTFPAVLQSSGLYSLSSVVTVPSSSLGTQTYICNVNHKPSNTKVDKRVEPKSCDKTHTCPPCPAPEAAGGPSVFLFPPKPKDTLMISRTPEVTCVVVDVSHEDPEVKFNWYVDGVEVHNAKTKPREEQYNSTYRVVSVLTVLHQDWLNGKEYKCKVSNKALPAPIEKTISKAKGQPREPQVCTLPPSREEMTKNQVSLSCAVKGFYPSDIAVEWESNGQPENNYKTTPPVLDSDGSFFLVSKLTVDKSRWQQGNVFSCSVMHEALHNHYTQKSLSLSPGK
fold enhancement of RTCC EC50 upon GSI treatment [2]: > 40 fold

B5: Pfizer_CD3_H2B4_RRRR-Pfizer_BCMA_comboC29_EEEE hIgG2a_ASS (bispecific antibody)
heavy 1: EVQLLESGGGLVQPGGSLRLSCAASGFTFSSYPMSWVRQAPGKGLEWVSAIGGSGGSLPYADSVKGRFTISRDNSKNTLYLQMNSLRAEDTAVYYCARYWPMDIWGQGTLVTVSSASTKGPSVFPLAPCSRSTSESTAALGCLVKDYFPEPVTVSWNSGALTSGVHTFPAVLQSSGLYSLSSVVTVPSSNFGTQTYTCNVDHKPSNTKVDKTVERKCEVECPECPAPPVAGPSVFLFPPKPKDTLMISRTPEVTCVVVAVSHEDPEVQFNWYVDGVEVHNAKTKPREEQFNSTFRVVSVLTVVHQDWLNGKEYKCKVSNKGLPSSIEKTISKTKGQPREPQVYTLPPSREEMTKNQVSLTCEVKGFYPSDISVEWESNGQPENNYKTTPPMLDSDGSFFLYSKLTVDKSRWQQGNVFSCSVMHEALHNHYTQKSLSLSPGK
light 1: EIVLTQSPGTLSLSPGERATLSCRASQSVSSSYLAWYQQKPGQAPRLLMYDASIRATGIPDRFSGSGSGTDFTLTISRLEPEDFAVYYCQQYQSWPLTFGQGTKVEIKRTVAAPSVFIFPPSDEQLKSGTASVVCLLNNFYPREAKVQWKVDNALQSGNSQESVTEQDSKDSTYSLSSTLTLSKADYEKHKVYACEVTHQGLSSPVTKSFNRGEC
heavy 2: EVQLVESGGGLVQPGGSLRLSCAASGFTFSDYYMTWVRQAPGKGLEWVAFIRNRARGYTSDHNASVKGRFTISRDNAKNSLYLQMNSLRAEDTAVYYCARDRPSYYVLDYWGQGTTVTVSSASTKGPSVFPLAPCSRSTSESTAALGCLVKDYFPEPVTVSWNSGALTSGVHTFPAVLQSSGLYSLSSVVTVPSSNFGTQTYTCNVDHKPSNTKVDKTVERKCRVRCPRCPAPPVAGPSVFLFPPKPKDTLMISRTPEVTCVVVAVSHEDPEVQFNWYVDGVEVHNAKTKPREEQFNSTFRVVSVLTVVHQDWLNGKEYKCKVSNKGLPSSIEKTISKTKGQPREPQVYTLPPSREEMTKNQVSLTCLVKGFYPSDISVEWESNGQPENNYKTTPPMLDSDGSFFLYSRLTVDKSRWQQGNVFSCSVMHEALHNHYTQKSLSLSPGK
light 2: not shown
Fold GSI Enhancement, RTCC assay, KMS11 target cells [1]: 48.3 fold | IC50, RTCC assay, KMS11 target cells, No GSI [1]: 0.097 nM | IC50, RTCC assay, KMS11 target cells, with GSI LY-450139 [1]: 0.002 nM | IC50, RTCC assay, KMS11 target cells, with GSI PF-3084014 [1]: 0.002 nM | IC50, RTCC assay, KMS11 target cells, with GSI PF-5212362 [1]: 0.002 nM

B6: BCMA×CD3 bispecific antibody ER26 (bispecific antibody, human IgG1, kappa, N297A)
heavy: QVQLVQSGAEVKKPGSSVKVSCKASGGTFSNYWMHWVRQAPGQGLEWMGATYRGHSDTYYNQKFKGRVTITADKSTSTAYMELSSLRSEDTAVYYCARGAIYNGYDVLDNWGQGTLVTVSSASTKGPSVFPLAPSSKSTSGGTAALGCLVKDYFPEPVTVSWNSGALTSGVHTFPAVLQSSGLYSLSSVVTVPSSSLGTQTYICNVNHKPSNTKVDKRVEPKSCDKTHTCPPCPAPELLGGPSVFLFPPKPKDTLMISRTPEVTCVVVAVSHEDPEVKFNWYVDGVEVHNAKTKPREEQYNSTYRVVSVLTVLHQDWLNGKEYKCKVSNKALAAPIEKTISKAKGQPREPQVCTLPPSREEMTKNQVSLSCAVKGFYPSDIAVEWESNGQPENNYKTTPPVLDSDGSFFLVSKLTVDKSRWQQGNVFSCSVMHEALHNHYTQKSLSLSPGK
light: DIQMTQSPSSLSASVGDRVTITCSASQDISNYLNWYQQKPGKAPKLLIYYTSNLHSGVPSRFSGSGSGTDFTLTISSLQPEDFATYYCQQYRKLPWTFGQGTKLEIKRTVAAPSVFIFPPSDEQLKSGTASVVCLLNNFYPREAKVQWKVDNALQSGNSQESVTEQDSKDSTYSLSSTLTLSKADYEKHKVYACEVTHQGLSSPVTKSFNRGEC
chain: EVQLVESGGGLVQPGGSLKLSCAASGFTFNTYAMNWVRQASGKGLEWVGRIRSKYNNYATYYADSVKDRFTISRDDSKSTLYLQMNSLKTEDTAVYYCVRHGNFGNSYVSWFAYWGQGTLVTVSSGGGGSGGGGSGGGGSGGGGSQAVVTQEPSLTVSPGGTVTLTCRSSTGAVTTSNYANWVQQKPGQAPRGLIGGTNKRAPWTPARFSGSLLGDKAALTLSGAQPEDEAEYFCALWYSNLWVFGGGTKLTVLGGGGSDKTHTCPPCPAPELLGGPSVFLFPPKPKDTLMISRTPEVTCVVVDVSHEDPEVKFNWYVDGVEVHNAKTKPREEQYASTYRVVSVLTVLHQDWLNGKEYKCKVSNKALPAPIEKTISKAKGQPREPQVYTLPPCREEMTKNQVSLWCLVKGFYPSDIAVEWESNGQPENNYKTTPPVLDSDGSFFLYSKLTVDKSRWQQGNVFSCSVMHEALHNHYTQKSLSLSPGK
fold enhancement of RTCC EC50 upon GSI treatment [2]: > 100 fold
